We go through three molecules from patent US9322000B2, “Methanol dehydrogenase enzymes from Bacillus” (Sinvent AS, priority 2012, dated 2016).

What all share (assay type): biochemical
A short description of series [1]: In vitro Mdh activity in crude cell extracts of recombinant E. coli. The conditions noted are these: for In vitro activity: expressed in E. coli, crude cell extract; for ranking of Mdh activity on expression in E. coli: in vitro and in vivo. The text has this:
The genes coding for Mdh and the Mdh activator protein Act were amplified from pET21a-plasmids harboring genes from B. methanolicus strains MGA3 (mdh-MGA3, mdh2-MGA3, mdh3-MGA3 and act-MGA3) and PB1 (mdh-PB1, mdh1-PB1 and mdh2-PB1). The genes were then cloned either into the pSEVA424 plasmid (mdh genes) or in the pSEVA131 plasmid (act gene). For cloning of mdh-MGA3, mdh-PB1, mdh1-PB1 and act-MGA3, EcoRI and HindIII restrictions sites were used, while mdh2-MGA3, mdh2-PB1 and mdh3-MGA3 were cloned by using EcoRI and PstI restriction sites. The resulting expression vectors were transformed into electrocompetent wt E. coli K-12 (BW25113) and into E. coli K-12 (BW25113) with a deleted frmA gene.
Expression Experiments For expression experiments, the cells were cultivated in either Luria-Bertani (LB) medium for in vitro assays or in M9 medium for in vivo assays both containing 20 μg/ml streptomycin for pSEVA424. When Act was co-expressed the medium was supplemented with 100 μg/ml ampicillin. Expression was induced when cells reached OD 0.5 (for in vitro tests) or OD 1 (for in vivo tests) by adding 0.1 mM IPTG (final concentration) for 6 hours. Cells were then harvested by centrifugation. For in vitro assays, crude cell extract was prepared by lysing the cells in a French press following ultracentrifugation. Alternatively, cells were resuspended in M9-medium without glucose for in vivo activity measurements. Enzyme Assays
In vitro measurements of Mdh activity: For determination of Mdh activity in crude cell extracts, the Mdh dependent formation of NADH was monitored at 340 nm. The assays were performed either at 37° C. or 45° C. in prewarmed buffer solutions. The Mdh assay contained 10-20 μg enzyme, 50 mM K2HPO4-buffer, pH7.4, 2.5 mM MgCl and 0.5 mM of NAD^+ (final concentrations). After 5 min of preincubation, the reaction was started with 1 M of methanol (final concentration).

The nature of series [2]: Methanol dehydrogenase assay of purified recombinant MDH proteins (NADH production at 340 nm). The conditions noted are these: for Vmax, variable substrate Methanol + Act / Vmax, variable substrate Methanol / Km: 45° C., pH 9.5; for Vmax, variable substrate Methanol: absence of Act. On the procedure: Alcohol dehydrogenase activities were measured spectrophotometrically essentially as described previously (Hektor, Kloosterman et al. (2002) Chem 277(49): 46966-46973) and the reaction mixture contained: 100 mM Glycine-KOH pH 9.5 (unless otherwise stated), 5 mM MgSO4, 0.5 mM NAD^+ and 500 mM alcohol (methanol, ethanol, propanol, 1,3-propanediol, or butanol). NAD^+ was substituted with equal concentrations of NADP^+, FMN^+, and FAD^+, when indicated. The reaction mixture for measurements of formaldehyde reductase activity contained: 50 mM Potassium-phosphate buffer pH=6.7, 0.15 mM NADH, 1 mM DTT and 11.6 mM (0.1-116 mM) formaldehyde. The assay components were mixed in the cuvette and pre-warmed to 45° C., unless otherwise stated. The reactions were started by addition of 5-40 μg of the purified MDH proteins, and the production of NADH was monitored at 340 nm for 4 minutes. One unit of MDH activity was defined as the amount of enzyme needed to produce 1 μmol NADH per minute under the conditions described above. Purified Act (0.1-40 μg) or NudF (20 μg) proteins were added to the reaction mixtures as indicated in the text.
The purified MDH and Act proteins (20 μg) were used in the kinetic experiments performing the methanol dehydrogenase and the formaldehyde dehydrogenase assays essentially as described above. […] For determination of the Km for NAD^+ (Km,NAD+) and Vmax, the methanol concentration was kept constant at a saturating level (500 mM), while the concentration of NAD^+ was varied (5-1000 μM). […] Act (20 μg) was added to the reaction mixtures for determination of Kμ,MεOH and Vmax values in the presence of this activator, as indicated in the text. In general, the slopes of activity versus time were linear in the measured period (data not shown). Km and Vmax values were calculated by using nonlinear regression with the Microsoft Excel solver-tool to fit the measured data to the Michaelis-Menten equation, as described previously (Jakobsen et al., (2009) Appl Environ Microbiol 75(3): 652-661). The values obtained from the regression were then compared to the values obtained from Lineweaver-Burk and Hanes-Woolf plots to ensure that the global minimum, not a local minimum, had been found.

A short description of series [3]: In vitro methanol dehydrogenase activity in lysates of recombinant B. subtilis 168. The conditions noted are these: for methanol dehydrogenase activity on expression in B. subtilis (in words): 50° C., pH 9.5. On the procedure: B. subtilis 168 cells were transformed with the act-MGA3, mdh-MGA3, mdh2-MGA3, and mdh3-MGA3 expression plasmids, and the analogous vectors coexpressing each of the methanol dehydrogenase genes with the act-MGA3 gene. Positive colonies were picked from the plate and the plasmid was isolated and checked by restriction for positive clones. Colonies were picked from plate and grown overnight at 37° C. (250 rpm) and diluted to OD600=0.1 in 20 ml LB containing chloramphenicol (5 μg/ml). After 3 hrs of growth at 37° C. (250 rpm), 500 μl 40% xylose were added to the culture to induce expression. The culture was grown for another 3 hrs and samples of 2 ml were taken. The sample was spun down for 2 min, 11.000×g and the supernatant was removed. The pellet was resuspended in 300 μl Birnboim A for B. subtilis (10 mM Tris-HCl pH 8.0; 20% sucrose; 50 mM NaCl; 0.25 mg/ml lysozyme; protease inhibitor) and incubated at 37° C. for 30 minutes. The samples were stored at −80° C. before use. In addition, we took advantage of recombinant E. coli cells constructed in the project expressing mdh-MGA3, mdh2-MGA3, mdh3-MGA3 and act-MGA3 from the pET21a plasmid in the in vitro assays.
The activities of the Mdh proteins were measured by following the formation of NADH spectrophoto-metrically. The reaction mixture contained: • 100 μl Glycine-KOH (pH 9.5) • 100 μl 5M Methanol (or 5M ethanol) • 5 μl 1M MgSO4 • 10 μl 50 mM NAD^+ • 10 μl sample • (10 μl E. coli act-pET21a lysate) • 775 μl H2O
The cuvets and reaction mixture without cell lysate were pre-incubated at 50° C. Formation of NADH was followed for 10 minutes at 340 nm at 50° C. The total activity was calculated by dividing the increase in absorption units per min by the extinction coefficient ([…]) and the total protein concentration in U/mg total protein. All assays were performed both by using methanol and ethanol as alternative substrates.

[4] abbreviates: methanol 500 mM, read-out: Km, variable substrate NAD+.

Like-named read-outs stand apart in the source and are kept apart here.

B1: Mdh2-MGA3: NAD-dependent methanol dehydrogenase encoded by chromosomal gene mdh2 of B. methanolicus MGA3, SEQ ID NO. 2 (protein)
chain: MTNTQSAFFMPSVNLFGAGSVNEVGTRLADLGVKKALLVTDAGLHGLGLSEKISSIIRAAGVEVSIFPKAEPNPTDKNVAEGLEAYNAENCDSIVTLGGGSSHDAGKAIALVAANGGKIHDYEGVDVSKEPMVPLIAINTTAGTGSELTKFTIITDTERKVKMAIVDKHVTPTLSINDPELMVGMPPSLTAATGLDALTHAIEAYVSTGATPITDALAIQAIKIISKYLPRAVANGKDIEAREQMAFAQSLAGMAFNNAGLGYVHAIAHQLGGFYNFPHGVCNAVLLPYVCRFNLISKVERYAEIAAFLGENVDGLSTYDAAEKAIKAIERMAKDLNIPKGFKELGAKEEDIETLAKNAMKDACALTNPRKPKLEEVIQIIKNAM
modifications: Bacillus methanolicus MGA3
A word on the Km: it is the concentration of substrate that gives half-maximal velocity. In the case of B1, the In vitro activity in series [1] (37° C., +Act) was 672 mU/mg; in series [1] (37° C., −Act), 59 mU/mg; in series [1] (45° C., +Act), 1910 mU/mg; in series [1] (45° C., −Act) it was 310 mU/mg. Moreover, the “ranking of Mdh activity on expression in E. coli” value in series [1] is “gave the best results”; in series [1] (listed as MGA3-Mdh2) it was “overall highest activities both in vitro and in vivo”. In series [2] (20 μg MDH + 20 μg Act), the “Vmax, variable substrate Methanol + Act” value is reported as 0.15 U/mg. In addition, the “Vmax, variable substrate Methanol” value in series [2] worked out at 0.04 U/mg. In series [2] (setting [4]), the Km is 22 µM. In addition, the “change of Km,MeOH in the presence of Act (in words)” value in series [2] (Act added vs. no Act) was “remained essentially the same”. Moreover, the “methanol dehydrogenase activity on expression in B. subtilis (in words)” value (“methanol dehydrogenase activity” for short) in series [3] is listed as “expressed active methanol dehydrogenases”. Further, the “ranking of activity in B. subtilis” value in series [3] (act and mdh gene co-expressed from the same plasmid) is “most active”.

B2: Mdh-MGA3: previously reported plasmid pBM19-encoded NAD-dependent methanol dehydrogenase of B. methanolicus MGA3, SEQ ID NO. 8 (protein)
chain: MTTNFFIPPASVIGRGAVKEVGTRLKQIGAKKALIVTDAFLHSTGLSEEVAKNIREAGVDVAIFPKAQPDPADTQVHEGVDVFKQENCDSLVSIGGGSSHDTAKAIGLVAANGGRINDYQGVNSVEKPVVPVVAITTTAGTGSETTSLAVITDSARKVKMPVIDEKITPTVAIVDPELMVKKPAGLTIATGMDALSHAIEAYVAKGATPVTDAFAIQAMKLINEYLPKAVANGEDIEAREKMAYAQYMAGVAFNNGGLGLVHSISHQVGGVYKLQHGICNSVNMPHVCAFNLIAKTERFAHIAELLGENVAGLSTAAAAERAIVALERINKSFGIPSGYAEMGVKEEDIELLAKNAYEDVCTQSNPRVPTVQDIAQIIKNAM
modifications: Bacillus methanolicus MGA3
As for B2, the In vitro activity in series [1] (37° C., +Act) stood at 464 mU/mg; in series [1] (37° C., −Act), 48 mU/mg; in series [1] (45° C., +Act), 1260 mU/mg; in series [1] (45° C., −Act), 251 mU/mg. The “Vmax, variable substrate Methanol + Act” value in series [2] (20 μg MDH + 20 μg Act) was 0.5 U/mg. Moreover, the Km in series [2] (20 μg MDH + 20 μg Act, read-out: Km, variable substrate Methanol + Act) stood at 12000 µM; in series [2] (setting [4]), 14 µM. In series [2], the “Vmax, variable substrate Methanol” value is 0.08 U/mg. For the same molecule, in series [2] (Act added vs. no Act), the “reduction of Km,MeOH in the presence of Act” value is recorded as 17 fold. Also, the “methanol dehydrogenase activity” value in series [3] is on record as “expressed active methanol dehydrogenases”. Further, the “ranking of activity in B. subtilis” value in series [3] (Act supplied from E. coli lysates) is reported as “most active”.

B3: Mdh3-MGA3: NAD-dependent methanol dehydrogenase encoded by chromosomal gene mdh3 of B. methanolicus MGA3, SEQ ID NO. 4 (protein)
chain: MKNTQSAFYMPSVNLFGAGSVNEVGTRLAGLGVKKALLVTDAGLHSLGLSEKIAGIIREAGVEVAIFPKAEPNPTDKNVAEGLEAYNAENCDSIVTLGGGSSHDAGKAIALVAANGGTIHDYEGVDVSKKPMVPLIAINTTAGTGSELTKFTIITDTERKVKMAIVDKHVTPTLSINDPELMVGMPPSLTAATGLDALTHAIEAYVSTGATPITDALAIQAIKIISKYLPRAVANGKDIEAREQMAFAQSLAGMAFNNAGLGYVHAIAHQLGGFYNFPHGVCNAILLPHVCRFNLISKVERYAEIAAFLGENVDGLSTYEAAEKAIKAIERMARDLNIPKGFKELGAKEEDIETLAKNAMNDACALTNPRKPKLEEVIQIIKNAM
modifications: Bacillus methanolicus MGA3
As for B3, the In vitro activity in series [1] (37° C., +Act) is recorded as 327 mU/mg; in series [1] (37° C., −Act), 21 mU/mg; in series [1] (45° C., +Act), 867 mU/mg; in series [1] (45° C., −Act), 113 mU/mg. Further, the “Vmax, variable substrate Methanol + Act” value in series [2] (20 μg MDH + 20 μg Act) is 0.45 U/mg. The “Vmax, variable substrate Methanol” value in series [2] came out at 0.09 U/mg. The Km in series [2] (setting [4]) is 40 µM. Moreover, the “change of Km,MeOH in the presence of Act (in words)” value in series [2] (Act added vs. no Act) was “remained essentially the same”. For the same molecule, the “methanol dehydrogenase activity” value in series [3] is on record as “expressed active methanol dehydrogenases”.
